These results are taken from the RNAGym collection of RNA variant scans (doi:10.1073/pnas.2313332121).

B1: TPR t1 (parent)
chain: GACCAAUCUGCCCUCAGAGCUCGAGAACAUCUUCGGAUGCAGAGGAGGCAGGCUUCGGUGGCGCGAUAGCGCCAACGUCCUCAACCUCCAAUGCAUCCCACCACAUGAUGAUGCCUGAAGAGCCUUGGUUUUUUG

The data set covers variants of B1. Put plainly: polymerase ribozyme fitness, log enrichment relative to wild type (log ratio); higher = more active; in vitro selection for triplet polymerase activity. The essentials:
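Mutant libraries for each subunit of a heterodimeric triplet polymerase ribozyme were made by PCR and then transcribed. Each library underwent one round of in vitro selection in triplicate: annealing with a biotinylated primer, the partner subunit and triplets, frozen incubation at −7 °C, gel excision of extended constructs, streptavidin-bead capture and RT-PCR. Input and output libraries were Illumina-sequenced, and only genotypes with ≥10 input reads and ≥1 read per output were kept. Fitness is the logarithm, base 2, of genotype enrichment over wild-type enrichment, computed from inverse-variance-weighted replicate averages.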
Consider A108G U125G, for which the “polymerase ribozyme fitness (log ratio)” value was -2.24.
Turning to A121G, the “polymerase ribozyme fitness (log ratio)” value turned out to be 1.88.
On to A121C, for which the “polymerase ribozyme fitness (log ratio)” value stood at 1.74.
Next, A121U: 2.12; U116C G135A: -0.82.
Regarding U109G G120A, the “polymerase ribozyme fitness (log ratio)” value was -4.17.
Next, G113U C123G: -1.81.
As for G113U C123U, the “polymerase ribozyme fitness (log ratio)” value was -3.05.
Turning to C115G U133G, the “polymerase ribozyme fitness (log ratio)” value was -0.9.
Take G120C G127A U134C: the “polymerase ribozyme fitness (log ratio)” value is -2.55.
Next, G110C A119U: -1.71; A108G U109A C124A: -4.41.
Regarding G120A G122C, the “polymerase ribozyme fitness (log ratio)” value is -0.571.
In the case of A118G G122A U129A, the “polymerase ribozyme fitness (log ratio)” value was -1.35.
In the case of G113A U126C, the “polymerase ribozyme fitness (log ratio)” value was -0.83.
G110U A118G: the “polymerase ribozyme fitness (log ratio)” value is -1.01.
Next, G117A U133G: -0.981; A111G G117U: -4.12.
Next, A111G G117A: -1.65.
Next, G117C U130C: -2.84; G117C U130A: -5.1.
Consider G110C U130G, for which the “polymerase ribozyme fitness (log ratio)” value was -6.34.
Next, U109C U130C: -5.04; G113A C123G U129A: -1.16.
Next, A119G U131A: 0.889; G110C G122C: -5.25.
As to G120C C123G, the “polymerase ribozyme fitness (log ratio)” value is 0.469.
Next, G120C C123A: 0.937; C115G G135U: -2.97.
Next, G110C G120C: -4.2; G113U G120C: -1.71; G113A G117A: -4.4.
On to G110U G127A, for which the “polymerase ribozyme fitness (log ratio)” value was -2.05.
Next, G110U G127U: -1.57; G110U U116A: -3.44; U112C G135U: -0.0479.
Take G110A: the “polymerase ribozyme fitness (log ratio)” value was -0.79.
Next, G110U: -1.08; G110C: -3.75; U116G C123U G128A: -5.61.
As to C114U C124G, the “polymerase ribozyme fitness (log ratio)” value was -0.85.
Turning to U112A U126C, the “polymerase ribozyme fitness (log ratio)” value stood at 0.739.
Next, U112A U126G: 0.0604; A121U C123A C124G: 2.17.
Turning to A121U U129G, the “polymerase ribozyme fitness (log ratio)” value was found to be 1.22.
Take A111C A119U U125A: the “polymerase ribozyme fitness (log ratio)” value is -4.12.
Next, C114U G120U: -2.8.
Next, U116C G120U: 0.377.
Next, G110C U131C G135A: -2.51; G117C G120A: -3.91.
In the case of G120A U125A, the “polymerase ribozyme fitness (log ratio)” value was 1.26.
U112G G128U: the “polymerase ribozyme fitness (log ratio)” value is -2.4.
Regarding C114A C115G G122C G127U, the “polymerase ribozyme fitness (log ratio)” value is -5.32.
Next, G110A G113C: -4.78; G120A U132A: 1.97.
Take C114U A118U: the “polymerase ribozyme fitness (log ratio)” value is -3.68.
As to U116G U126C, the “polymerase ribozyme fitness (log ratio)” value is -3.51.
Take A111U A121U U129A G135C: the “polymerase ribozyme fitness (log ratio)” value is -2.04.
A111C C114A: the “polymerase ribozyme fitness (log ratio)” value was -2.98.
Next, U116C A121G U129C: -3.73; C114U G117C U133A: -5.74; G110C C123G: -4.09.
Next, A111U A121C U126A U130G: -2.89; U116C G117C: -2.2.
Next, A121G U132A: 1.94.
With G120A C123G, the “polymerase ribozyme fitness (log ratio)” value came to 1.22.
Next, G113A U132C: -1.76.
Turning to G110A U133A, the “polymerase ribozyme fitness (log ratio)” value is -1.59.
With C114U U130A, the “polymerase ribozyme fitness (log ratio)” value was -2.7.
Next, G113A A121G: -0.104.
Next, G122A U129C: -0.808; G110C G135C: -4.01.
U109A U133A: the “polymerase ribozyme fitness (log ratio)” value is -5.88.
G120A U126C: the “polymerase ribozyme fitness (log ratio)” value was -0.356.
Next, A111C U112A: -1.52.
Take G110A C115G: the “polymerase ribozyme fitness (log ratio)” value was -5.71.
Next, G120U U133A: 0.165; G113U U132A: -2.22.
Next, U112C G120C: 0.72.
Take U116G G120U: the “polymerase ribozyme fitness (log ratio)” value was -2.52.
For U116G G120C, the “polymerase ribozyme fitness (log ratio)” value is -0.715.
For the variant G117C C123U, the “polymerase ribozyme fitness (log ratio)” value was -4.89.
Consider A111C A119C G127U, for which the “polymerase ribozyme fitness (log ratio)” value is -2.96.
As for U109C A111C, the “polymerase ribozyme fitness (log ratio)” value is -3.65.
Next, C114G C123U: -4.31; C114G C123A: -1.74; G110A C124U: -0.567.
Next, G110A C124A: -0.401; G113U G122C C123A: -2.42.
As to G113C U116A, the “polymerase ribozyme fitness (log ratio)” value is -4.45.
As to G113C U116G, the “polymerase ribozyme fitness (log ratio)” value was -3.72.
Next, G117U U133C: -2.23; U112C C124A G128A: 0.254.
Next, G113U G128C: -4.63; G113U G128A: -3.35.
Next, G113U G128U: -4.72; U116G U130C: -2.14.
For the variant G110U G122A, the “polymerase ribozyme fitness (log ratio)” value is -2.47.
Next, G110U G122U: -2.07; A111C G128A: -1.07; U116G U125A: -2.37.
For the variant A111C G117A, the “polymerase ribozyme fitness (log ratio)” value was -2.
Next, U116A U130C: -2.68; U116G G117A: -1.82; C115A U116A: -2.84.
Next, U112G C115A U126G: -2.63.
On to A111G U130G, for which the “polymerase ribozyme fitness (log ratio)” value was -0.2.
Regarding C115U G127A, the “polymerase ribozyme fitness (log ratio)” value was -3.15.
Take G113U G135U: the “polymerase ribozyme fitness (log ratio)” value was -3.24.
Consider C115A U133A, for which the “polymerase ribozyme fitness (log ratio)” value amounted to 0.127.
Next, G113C U116G U130G: -5.3; G113C U116G C124A: -5.98.
Next, G120C G128U: -0.74; G113U U131C: -3.4.
Next, G120A G127A U129C: -1.04; U112A G122U U129C: 0.27; G110C C114U: -4.33.
In the case of G120A A121C, the “polymerase ribozyme fitness (log ratio)” value is -0.98.
Turning to A108U U112C, the “polymerase ribozyme fitness (log ratio)” value is -5.97.
Regarding A108U U112A, the “polymerase ribozyme fitness (log ratio)” value is -4.85.
On to G110C U125A, for which the “polymerase ribozyme fitness (log ratio)” value is -5.11.
Next, U112A G128U U131C: 1.17.
For the variant G120U G135U, the “polymerase ribozyme fitness (log ratio)” value was -1.2.
Next, A121C U130A: 0.644; A111C U129G: -0.988.
For U109A C124U, the “polymerase ribozyme fitness (log ratio)” value was -4.15.
Next, C115A G135U: -0.547.
Next, C115A A118U U131A: -1.85.
Next, G110U U133C: 0.02; C114U U133G: -0.517; A118G G120C: -0.275.
On to G117A U125G, for which the “polymerase ribozyme fitness (log ratio)” value was -1.64.
Take U112C C124U: the “polymerase ribozyme fitness (log ratio)” value turned out to be 1.58.
As for U116G A119G, the “polymerase ribozyme fitness (log ratio)” value was determined as 1.79.
With C114U A119C, the “polymerase ribozyme fitness (log ratio)” value was -6.28.
Next, C115A G122U U132C: -0.273.
As for C114G U130A, the “polymerase ribozyme fitness (log ratio)” value was -2.22.
Next, A111G C115U: -2.28; C115A A119G: -0.948; A118U C123A U130C: -0.0514.
Next, C114A G117C: -4.77.
Take G113C U129A: the “polymerase ribozyme fitness (log ratio)” value is -3.5.
Next, G117U C123G: -1.56; G117U C123A: -2.17; U112G U133G: -0.442.
In the case of G122A G128U G135U, the “polymerase ribozyme fitness (log ratio)” value is -2.49.
In the case of G120A G128U, the “polymerase ribozyme fitness (log ratio)” value is -0.62.
For the variant G117U A121C, the “polymerase ribozyme fitness (log ratio)” value is -2.4.
As for A111U G113A U130G, the “polymerase ribozyme fitness (log ratio)” value is -5.85.
For the variant G117C U129G, the “polymerase ribozyme fitness (log ratio)” value was -6.14.
Next, C115G G117A G135A: -3.04; C115U G117C: -3.48.
Next, A118G G135C: -0.273; C115U C124U: -1.17.
As for A119C C124A, the “polymerase ribozyme fitness (log ratio)” value is -2.4.
Next, A119C C124G: -2.41.
Next, G117C C124A G127U: -4.29; A111C G113A: -3.44.
Next, G110U U112A: -2.85.
In the case of G110U U112G, the “polymerase ribozyme fitness (log ratio)” value was -4.22.
A119U C124A: the “polymerase ribozyme fitness (log ratio)” value stood at 1.28.
For the variant G120A C124U, the “polymerase ribozyme fitness (log ratio)” value was determined as 1.89.
Next, U116G U129G: -4.36; G120A G135U: 0.435; A111G A121C: 0.741.
Next, A111G U133G: -0.431; G113A U116A: -4.71.
